Molecular target: human neonatal Fc-receptor (FcRn) (human) (UniProt P55899)
Assay: FcRn affinity chromatography

Substance	retention time	retention time on FcRn affinity column	also measured
IgG1 Fc-region, symmetric, L234A/L235A/P329G + Y436A			FcRn-affinity column retention time: 41.3 min
anti-HER2 antibody, symmetrically modified, K288E	45.2 min		
anti-HER2 antibody, symmetrically modified, K290H	46.2 min		
anti-HER2 antibody, symmetrically modified, L309H	45.5 min		
anti-HER2 antibody, symmetrically modified, R255D	41.4 min		
bispecific anti-VEGF/ANG2 antibody (knobs-into-holes), no FcRn affecting mutation (bispecific antibody)		51.8 min	
bispecific anti-VEGF/ANG2 antibody (knobs-into-holes), one chain with H310A/H433A/Y436A (bispecific antibody)		46.7 min	
bispecific anti-VEGF/ANG2 antibody (knobs-into-holes), one chain with H435A (bispecific antibody)		48.8 min	
bispecific anti-VEGF/ANG2 antibody (knobs-into-holes), one chain with L251D/L314D/L432D (bispecific antibody)		46.3 min	
bispecific anti-VEGF/ANG2 antibody (knobs-into-holes), one chain with M252Y/S254T/T256E (bispecific antibody)		56.2 min	

Continued, in another order:

retention time	retention time on FcRn affinity column	Substance	also measured
46.2 min		anti-HER2 antibody, symmetrically modified, D98E	
45.6 min		anti-HER2 antibody, symmetrically modified, E258H	
46.4 min		anti-HER2 antibody, symmetrically modified, E430H	
46.3 min		anti-HER2 antibody, symmetrically modified, K317H	
52 min		anti-HER2 antibody, symmetrically modified, N434H	
46.3 min		anti-HER2 antibody, symmetrically modified, Q311H	
46 min		anti-HER2 antibody, symmetrically modified, T256H	
46.3 min		anti-HER2 antibody, wild-type	
	48.4 min	bispecific anti-VEGF/ANG2 antibody (knobs-into-holes), one chain with H310A (bispecific antibody)	
	48.8 min	bispecific anti-VEGF/ANG2 antibody (knobs-into-holes), one chain with I253A (bispecific antibody)	

Reference: patent US20160068613A1
